# Laboratory results reported in patent US20050208021.
# What was measured:
# [1] = system: T1, PhiC31 integrase wild type (Bacteriophage Phi-C31); test: cell_activity
# T1 sequence: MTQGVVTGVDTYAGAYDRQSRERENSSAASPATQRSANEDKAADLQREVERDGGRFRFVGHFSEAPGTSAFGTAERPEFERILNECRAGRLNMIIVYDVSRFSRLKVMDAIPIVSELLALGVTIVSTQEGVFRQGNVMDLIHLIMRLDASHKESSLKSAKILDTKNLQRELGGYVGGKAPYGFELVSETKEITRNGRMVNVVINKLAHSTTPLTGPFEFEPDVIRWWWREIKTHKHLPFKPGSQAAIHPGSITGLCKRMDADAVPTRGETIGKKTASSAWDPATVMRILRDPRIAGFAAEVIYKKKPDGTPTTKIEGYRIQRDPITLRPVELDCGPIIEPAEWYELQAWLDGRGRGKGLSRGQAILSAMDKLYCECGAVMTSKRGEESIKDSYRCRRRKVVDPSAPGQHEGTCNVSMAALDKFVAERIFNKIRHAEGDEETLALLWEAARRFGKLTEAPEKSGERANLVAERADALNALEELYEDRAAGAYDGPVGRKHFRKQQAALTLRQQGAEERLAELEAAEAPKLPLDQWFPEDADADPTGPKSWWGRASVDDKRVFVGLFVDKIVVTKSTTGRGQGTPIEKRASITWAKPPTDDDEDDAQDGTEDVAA
# [2] = system: T2, PhiC31 integrase mutant 1C1 (Bacteriophage Phi-C31); test: cell_activity; settings: attB donor integration into 293 genome
# T2 sequence: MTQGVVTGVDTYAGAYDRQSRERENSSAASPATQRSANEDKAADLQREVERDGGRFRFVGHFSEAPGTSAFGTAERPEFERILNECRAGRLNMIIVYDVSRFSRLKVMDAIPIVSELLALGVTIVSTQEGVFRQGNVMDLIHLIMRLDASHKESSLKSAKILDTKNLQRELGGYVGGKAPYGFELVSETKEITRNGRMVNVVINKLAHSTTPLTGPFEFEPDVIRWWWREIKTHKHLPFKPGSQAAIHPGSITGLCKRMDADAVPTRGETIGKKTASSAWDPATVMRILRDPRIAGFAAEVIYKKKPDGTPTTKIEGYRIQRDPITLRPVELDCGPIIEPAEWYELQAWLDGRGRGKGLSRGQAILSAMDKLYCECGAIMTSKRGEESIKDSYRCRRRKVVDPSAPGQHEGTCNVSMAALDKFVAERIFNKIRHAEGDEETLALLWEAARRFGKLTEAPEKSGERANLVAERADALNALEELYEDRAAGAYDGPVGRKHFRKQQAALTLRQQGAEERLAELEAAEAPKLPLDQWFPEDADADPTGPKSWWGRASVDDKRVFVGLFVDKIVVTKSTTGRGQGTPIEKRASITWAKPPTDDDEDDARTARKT
substance,measurement,setting,value
mouse pseudo attP mpsL1,activity (% haploid genomes integrated),"[1]; mouse liver, partner attB, qPCR, +/-0.89",1.8
PhiC31 attB/attP in pBCPB+,activity (% white colonies),"[1]; Drosophila S2 cells, +/-11.7, background 1.7",47.8
CGATGTAGGTCACGGTCTCGAAGCCGCGGTGCGGGTGCCAGGGCGTGCCCTTGGGCTCCCCGGGCGCGTACTCCACCTCACCCATCTGGTCCATCATGATGAACGGGTCGAGGTGGCGGTAGTTGATCCCGGCGAACGCGCGGCGCACCGGGAAGCCCTCGCCCTCGAAACCGCTGGGCGCGGTGGTCACGGTGAGCACGGGACGTGCGACGGCGTCGGCGGGTGCGGATACGCGGGGCAGCGTCAGCGGGTTCTCGACGGTCACGGCGGGCATGTCGA (double strand) [PhiC31 attB full length],activity (fold over background colonies),[2],> 10
